Laboratory results reported in US20150246959A1.

Target: MART-1 presented by HLA-A*0201 on 624 mel-CIITA cells (human)
Assay: cell-based or functional assay

IFN-gamma (pg/ml); Donor 1; 624-CIITA: 1480 pg/mL
IFN-gamma (pg/ml); Donor 2; 624-CIITA: 1440 pg/mL
Substance: F5 (anti-MART-1) TCR
